This is an account of results in article PMC5698441 (Nature Communications, 2017).

For this experiment, the target named is T1, biotinylated CaM (UniProt P0DP23 1-149, biotin (EZ link NHS Biotin, two-fold molar excess)).
T1 construct: calmodulin, biotin-labelled; also called biotin-CaM; biotin-labeled CaM; source: purified CaM labelled with EZ link NHS Biotin, separated from free biotin by SEC
Briefly: AlphaScreen or HTRF; competition: WT or mutant 20-mer peptides AKAP79 77-96 added to biotin-CaM (10 nM) and GST-AKAP79 (1-153); emission relative to untreated; peptide concentration not given. The settings on record: both partners purified. (In general: Bead proximity is the source of the signal in Alpha formats.)

B1: 20-mer AKAP79 (77–96) V86A (peptide)
peptide: GAWASLKRLATRRKRSESSK
notes: AKAP79 residues 77-96 with V86A; also called V86A peptide; source: synthetic peptide (Sigma PEPscreen)
Turning to B1, the “alphascreen emission relative to untreated samples” value was 0.17 ± 0.04 relative to untreated.
